We go through four proteins from patent publication US20120184019A1 (University of California, published 2012).

Series [1] concerns the molecule itself. Put plainly: self-assembly into filaments, GFP fluorescence microscopy in E. coli.
Series [2] concerns the molecule itself. Briefly: GFP fluorescence microscopy in B. subtilis (self-assembly into filaments).
Series [3] deals with the molecule itself. Put plainly: self-assembly into filaments, GFP fluorescence microscopy, time-lapse and FRAP in B. subtilis.

B1: Alp7A-GFP fusion protein (OrfB of Bacillus subtilis natto plasmid pLS20 with C-terminal GFP) (other)
chain: MNISRMNVDFGNSMYMNLIDGYFFELPTNVVEISKEAAEGKFTSIVEDPADLKDRLLVSTVIDETERYFLVGELAEPEVLGNQHIKKLHNKVESHIPYVTFLAATAYYQALKGKREDNEVTIEYFQTMLPIWLLKKLDKFSEMQKRMASKFLGTHQVKVLTLGLEKELTIKVEDAACRIESEVARWAIKKNFDLEDKDYAEQFKNYDVVFCDLGGGTDDLVLLPAGLKPPKSRDSFVSNTEAPFLAHLEKLRKEKLLEHFDSVRELEKFIYSNIGKTKMERRDGNTGQKFDLTDIIKKSLKEYTEIKIAQAENTFPAPKDKVYKYLYFGGVGEVLEESISVVTEERYGRDISESNHIVAEDARLLNLYGLEVLSRAEQVKKQANEKEAQSI
notes: Observed inside living or fixed E. coli and B. subtilis cells; Not a purified protein; also called pLS20 OrfB; not shown: C-terminal GFP from plasmid pMUTIN-GFP+
B1: the binding result in series [1] is “binds”.

B2: Alp7A(D212A)-GFP (other)
chain: MNISRMNVDFGNSMYMNLIDGYFFELPTNVVEISKEAAEGKFTSIVEDPADLKDRLLVSTVIDETERYFLVGELAEPEVLGNQHIKKLHNKVESHIPYVTFLAATAYYQALKGKREDNEVTIEYFQTMLPIWLLKKLDKFSEMQKRMASKFLGTHQVKVLTLGLEKELTIKVEDAACRIESEVARWAIKKNFDLEDKDYAEQFKNYDVVFCALGGGTDDLVLLPAGLKPPKSRDSFVSNTEAPFLAHLEKLRKEKLLEHFDSVRELEKFIYSNIGKTKMERRDGNTGQKFDLTDIIKKSLKEYTEIKIAQAENTFPAPKDKVYKYLYFGGVGEVLEESISVVTEERYGRDISESNHIVAEDARLLNLYGLEVLSRAEQVKKQANEKEAQSI
notes: Observed in B. subtilis PY79 cells; also called mini-pLS20alp7A(D212A)-gfp product; not shown: C-terminal GFP from plasmid pMUTIN-GFP+
As for B2, the binding result in series [2] is recorded as “no binding”.

B3: Alp7A(E180A)-GFP (other)
chain: MNISRMNVDFGNSMYMNLIDGYFFELPTNVVEISKEAAEGKFTSIVEDPADLKDRLLVSTVIDETERYFLVGELAEPEVLGNQHIKKLHNKVESHIPYVTFLAATAYYQALKGKREDNEVTIEYFQTMLPIWLLKKLDKFSEMQKRMASKFLGTHQVKVLTLGLEKELTIKVEDAACRIASEVARWAIKKNFDLEDKDYAEQFKNYDVVFCDLGGGTDDLVLLPAGLKPPKSRDSFVSNTEAPFLAHLEKLRKEKLLEHFDSVRELEKFIYSNIGKTKMERRDGNTGQKFDLTDIIKKSLKEYTEIKIAQAENTFPAPKDKVYKYLYFGGVGEVLEESISVVTEERYGRDISESNHIVAEDARLLNLYGLEVLSRAEQVKKQANEKEAQSI
notes: Observed in B. subtilis PY79 cells; also called mini-pLS20alp7A(E180A)-gfp product; not shown: C-terminal GFP from plasmid pMUTIN-GFP+
On to B3, for which, in series [3], the binding result is “binds”.

B4: Alp8A-GFP fusion protein (Orf250 of Proteus vulgaris plasmid Rts1 fused to GFP) (other)
chain: MELLRKGRSFGGLFLIKGKVMNQSERFIVGLDIGYSNVKVACGGTQLLDPKVTIFPAYATPEPESDLALAKKSPDEVKVYPNGTEWRVFTNRVGHRELHESYHSTEMYKALFYGALIKATEGRSDVIDILVTGLPVRIANSEADRSQLCESFTGKHEVTPGRFILVKEVVVLSQGVGIMNDILNTEGLISDEDLEFSNILVIDPGYYSMDYVTFHRGDKKNEFSGSSLNATSVIIEEIVRVLERDYPKEGAQETERIETALRLGNKTFNNGFRSVEIEPLIEEVSHRIVSSVVAELLKRTRSIGPVHIIISAGGGARFYDHFIKEAFPQARILQSVNPVASNSIGYWHYGVNKLSSQSD
notes: Produced in E. coli TOP10 from pEB400; also called Rts1 orf250; pPtrcalp8A-gfp product; not shown: GFP from plasmid pDSW210
Turning to B4, the binding result in series [1] is recorded as “binds”.
